Measurements: the supplement of paper PMC12764529
± gives the half width of the 95% confidence interval.

test: folding stability dG unfold from trypsin proteolysis; higher = more stable
Summary of the method: (§1)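 Unfolding free energy was derived, per protease or combined, by relating Bayesian-fitted K50 values from sequencing counts to a sequence-predicted unfolded-state K50 and a shared folded-state K50. The underlying digests exposed cysteine-free mini-proteins under 80 residues, in a PA-tagged cDNA display construct, to trypsin and chymotrypsin at 11 threefold-diluted concentrations and to a no-protease condition. A filter kept only designs with AlphaFold2 dimer inter-PAE above 15.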

Row | Sequence | folding stability dG unfold [kJ/mol]
1 | SAGGSAGGTFEFFFPDGLYFTVEFRIVEMHPNPGNGQMHMRMEATIKIIPLPPPPPPPKDPGDKSAGGSAGG [r6_939_TrROS] | 11.3 ± 0.364
2 | SGMSMAKDAKPIYIEYRDPNGKSYRVTEVKVNEDGTLTITIEYPDSIKTYTLPPNANYPLSSSLILSTVESA [r9_993_JUSTAS] | 5.86 ± 0.318
3 | SAGALEETTLPLPRPESLPDVSPEVLAALILALLSAVGVTVEVLSSDPANPVTAMVATRDGRVVLRALASAG [r5_80_JUSTAS] | 6.62 ± 0.205
4 | SAGGSAGGSAGSMTSISVDVPVPGKNVVTVTVTLPPNTTTVTITVEPLPNGELKVTVETSSAGGSAGGSAGG [r11_657_JUSTAS] | 12.1 ± 0.293
5 | SAGGSPLLVLHIRLRRPGEEREIVIPSDLIEDMPLEEIEEILRALPWIDEAEIELEEFPPLRPDELSAGGSA [r2_282_TrMRF] | 5.08 ± 0.109
6 | SAGGSAGGSAGGMKKGQKFKPVKKVKLRFKVKVKVKVGGKEYEFEAEVELEVEFYVLEDSAGGSAGGSAGGS [r10_758_TrROS_Hall] | 10.7 ± 0.837
7 | MRLYLVKVEIRREEVDPETGEVREEKLELTVLVREEDEEALEKAEELARKLAEEEGIKEVKVEVVELPAEES [r1_346_TrROS_Hall] | 9.63 ± 0.377
8 | ERDLIVIAGDDLTPEQLRELLEELGFRPEDAEIFREGDALLIVLPDAVILVVRPPPLPVLSEDDPELLEEAS [r1_57_TrMRF] | 13.5 ± 0.669
9 | SAGGSAGGSAMKILSVTEEVLPNGTRVVRVTVKLPTPKTREIVVSPEVVEAGRLDEVVEELLSAGGSAGGSA [r18_129_JUSTAS] | 5.76 ± 0.138
10 | SAGMKTKTIEETITFTFPPGNPPDLEEIKEKLKSKGVKVLKVEMFEPPGDYYVVTAKVVKELEPSELLSSAG [r5_167_JUSTAS] | 3.91 ± 0.301
11 | SAGGSAGGSAGMRVVEVYRLPDGSYRIRFPDGTEVEVSPEELEEVARRLGADEVRVRPELSAGGSAGGSAGG [r11_312_JUSTAS] | 10 ± 0.234
12 | SAGGMLTYTTEYDPRGVLTVREYDPSTSKPISTHIIELGPEPVPPPVPGFPQVTPSGELRLVEDPAGPSAGG [r13_9_JUSTAS] | -0.743 ± 0.502
13 | SAGGSAGGSAWGWISFNFEFLMFNPDGMFMPFRMQIDIRVEVKPEPKPKPKPKRDPNGKWKSAGGSAGGSAG [r3_252_TrROS] | 7.99 ± 0.142
14 | SAGGSAGGSAWRLYIGGQKIEIPPGGPVKLERHKNGWVKIEIKMPGGRKKEFTIPIPPGATSAGGSAGGSAG [r3_207_TrROS] | 5.16 ± 0.586
15 | SMFRPFPLPDGRPAYDFIIPGLELASSFFPETGRPVLVLRPGGRLGAAPLFAADLDVLFSRPPLVAVEPDSA [r9_205_TrMRF] | 2.65 ± 0.46
16 | SAGGSAGGSAGGSPDGWKFKMEMFTVKVPGAKITIPDGKSITLPPGKEVTIMIMTYVPPSAGGSAGGSAGGS [r4_26_TrROS] | 9.4 ± 0.285
17 | SAGGMLVEARPVLRLTLVSPDGTPREFELPFTVPFSPENPEALLEEAEAIARAIAEATGAEAEIEIEPSAGG [r13_853_TrMRF] | 2.12 ± 0.268
18 | SAGGSAMSITISDISSVKNLTITETTPDGTPVTVTVNATTGSGPPTLTFTATTPGTGATTTTTTAFSAGGSA [r15_1006_JUSTAS] | 2.9 ± 0.0586
19 | SAGGMTVSVTADGSSYTATVKLPDGTTLTVPFTSLEELATQVREEYEKAFPDVPLERLVLEDISPTAPSAGG [r13_887_JUSTAS] | 7.42 ± 0.13
20 | SAGGSAGGSKPEPVKPVKLKVKLPGGEYEVEAVELPKGVVLVRNPADNSLAVITPDRLVVLPLSAGGSAGGS [r12_737_TrMRF] | 3.15 ± 0.1
21 | SAGGSAMLVFKITIKNPETNETIELEIEAETLEEAKEAIEKLIAELTGKEPTEIKIEVVEIKEEDLSAGGSA [r15_670_TrROS_Hall] | 17.1 ± 1.46

test: folding stability dG unfold (combined trypsin and chymotrypsin); higher = more stable
Summary of the method: as §1

Row | Sequence | folding stability dG unfold [kJ/mol]
22 | SAGGMGISTEPEISFERKTLPDGTYVLEIHTTTTTTDSSGVVTTTTSTKTVKFSPDNPEKIKELIEALSAGG [r13_412_JUSTAS] | 10.6 ± 0.586
23 | SAGKIEITVKPDGTVIIKVTVEVDGKKLELTIEVPPEMTIEEIIEKLKELAEELGVEKVEVEIVPLPPSAGG [r19_31_TrROS_Hall] | > 25.1
24 | SAKYYFITVEIYMRTGGGPRKMDITVMIPPEEMPPEDVKEIAKEIADWLAEHHPGFEVKVTIIPPDDMKSAG [r14_723_TrROS] | 15.6 ± 1.97
25 | SAGMETIEVPLPVEEIKEALDAGLSPEEIARLLAEETGEEVEIEVGGRKITITRNEDGELIVRIEVKPDSAG [r5_343_TrROS_Hall] | 9.87 ± 0.837
26 | SAGGSAGGIKPGETVLIVFKDKPEILVFPPGMSEEERKAFPGAKFILVKVEKPELTEEELKALESAGGSAGG [r6_830_TrROS_Hall] | -0.971 ± 0.669
27 | SAGGSAGGSAGGKVTVTPDGRLVIEKPKVTVEPVEVEEVEVELELKLSPEELEELLKKLSAGGSAGGSAGGS [r10_1096_TrROS_Hall] | 2.32 ± 0.795
28 | SAGGSAGGSEKTIKITIKVKVKKKVTVKNKNGEKKTFEFEEKTYTLTTIKFDSKEDALKALKKSAGGSAGGS [r12_452_TrROS_Hall] | 9.06 ± 0.92
29 | SAGGKLKIKIGDKEYTVESVEIIEERPLPGGGPVYLIRLKFKDGPALIEIPPNIPSSISNNGTLVAGSAGGS [r16_638_TrMRF] | 7.32 ± 0.397
30 | SAGGSAGGSAMKIEIEVDPKTNVIYIRVNGLVYRFTKSEDGYIYIEVYDKNGKLIETFRLKLSAGGSAGGSA [r18_333_TrROS_Hall] | 18.4 ± 0.753
31 | SAGGMGFEKVGTFKLEDDVIVEIYKGPEKKLVAKVYFPKTGKVIEDPGHPDESIEELIERIKAIAEEESAGG [r13_624_TrMRF] | 17.6 ± 1.17
32 | SAGGSAGGSAGNWKIKNIEPVRLPNNVHIMKFQIPGRSLIFVFDPKNGQKRWIPLKDIKPSAGGSAGGSAGG [r17_286_TrROS] | -0.295 ± 0.377
33 | SAPFTATETVVTEEEDPATGLTRIPVEMTVDDHPVTGEGVRDPADPSRVSFSITFPDSDLTLTGEEPLPSAG [r14_178_JUSTAS] | 1.31 ± 0.201
34 | SAGGSGKVIEIPIELPEDKTITLRLDPETGKAVVEAEENVPLEKVIEAAKKIFEENGFELNGLDISSAGGSA [r2_497_TrMRF] | 3.27 ± 0.502
35 | SAGGSPSTVVPTLLTLEIVKKDEKGNETSETIPVLVEDSPEEARERLIEEIEKKYGAEVVKVTVKPESAGGS [r16_511_JUSTAS] | -2.54 ± 0.753
36 | SAGGSAGGSAGGLVEQAVRAIREAKKAGLKEVVIYLSEEQKEAVKEAAEKEGLKVKIVPESAGGSAGGSAGG [r11_371_TrROS_Hall] | 2.46 ± 0.36
37 | SAKFRPVEIPFEIKLEEKDPEDGKKEEREFDIKVKIMVFPDNGMVFISIEFIELGRPITIMLPPGAPIISAG [r14_587_TrROS] | 12.9 ± 1.17
38 | SAIKLPDGFEIKEVEFTPDGNVTIKIEVKKYSFMIYNPDNGQIQHIPPGKEQEITMPPNEPMRIWVIKPSAG [r14_385_TrROS] | 6.2 ± 1.51
39 | SAGGSAGGSAGGKKPVKITEIHRNPGPNWIRIRIPGNGRPIPIPVPPGKKLTLEDALDFSAGGSAGGSAGGS [r10_844_TrROS] | -1.27 ± 0.795
40 | SAGGNNIYVHIQFKPKEQKMERTPDNGKWDMEYKWEIDITIYYPKGMSPEQAERLVNELREIFPGIKSAGGS [r8_306_TrROS] | 8.34 ± 0.502
41 | SAGGSAGGMVKVLVNPDGGATFIFNKDGSTSTIPVPYTTLEDVKAAVEALAKEYGIEVEEIVPASAGGSAGG [r6_254_JUSTAS] | 4.11 ± 0.628
42 | SAGGKMVKIEITLSPEEIEKIKEKLEEETGLEVEIKVEKNENGEVKLIITFKSEEAAKKALEKLGIESAGGS [r16_172_TrROS_Hall] | 14.3 ± 0.586

Row | Sequence | folding stability dG unfold [kJ/mol]
43 | SAGGSAGGTFEFFFPDGLYFTVEFRIVEMHPNPGNGQMHMRMEATIKIIPLPPPPPPPKDPGDKSAGGSAGG [r6_939_TrROS] | 16 ± 0.837
44 | SGMSMAKDAKPIYIEYRDPNGKSYRVTEVKVNEDGTLTITIEYPDSIKTYTLPPNANYPLSSSLILSTVESA [r9_993_JUSTAS] | 6.09 ± 0.586
45 | SAGALEETTLPLPRPESLPDVSPEVLAALILALLSAVGVTVEVLSSDPANPVTAMVATRDGRVVLRALASAG [r5_80_JUSTAS] | 8.61 ± 0.285
46 | SAGGSAGGSAGSMTSISVDVPVPGKNVVTVTVTLPPNTTTVTITVEPLPNGELKVTVETSSAGGSAGGSAGG [r11_657_JUSTAS] | 11.6 ± 0.418
47 | SAGGSPLLVLHIRLRRPGEEREIVIPSDLIEDMPLEEIEEILRALPWIDEAEIELEEFPPLRPDELSAGGSA [r2_282_TrMRF] | 6.99 ± 0.372
48 | SAGGSAGGSAGGMKKGQKFKPVKKVKLRFKVKVKVKVGGKEYEFEAEVELEVEFYVLEDSAGGSAGGSAGGS [r10_758_TrROS_Hall] | 15.4 ± 1.05
49 | MRLYLVKVEIRREEVDPETGEVREEKLELTVLVREEDEEALEKAEELARKLAEEEGIKEVKVEVVELPAEES [r1_346_TrROS_Hall] | 10.3 ± 1.05
50 | ERDLIVIAGDDLTPEQLRELLEELGFRPEDAEIFREGDALLIVLPDAVILVVRPPPLPVLSEDDPELLEEAS [r1_57_TrMRF] | 13.4 ± 0.837
51 | SAGGSAGGSAMKILSVTEEVLPNGTRVVRVTVKLPTPKTREIVVSPEVVEAGRLDEVVEELLSAGGSAGGSA [r18_129_JUSTAS] | 6.96 ± 0.259
52 | SAGMKTKTIEETITFTFPPGNPPDLEEIKEKLKSKGVKVLKVEMFEPPGDYYVVTAKVVKELEPSELLSSAG [r5_167_JUSTAS] | 7.7 ± 0.544
53 | SAGGSAGGSAGMRVVEVYRLPDGSYRIRFPDGTEVEVSPEELEEVARRLGADEVRVRPELSAGGSAGGSAGG [r11_312_JUSTAS] | 15.8 ± 0.213
54 | SAGGMLTYTTEYDPRGVLTVREYDPSTSKPISTHIIELGPEPVPPPVPGFPQVTPSGELRLVEDPAGPSAGG [r13_9_JUSTAS] | -0.224 ± 0.628
55 | SAGGSAGGSAWGWISFNFEFLMFNPDGMFMPFRMQIDIRVEVKPEPKPKPKPKRDPNGKWKSAGGSAGGSAG [r3_252_TrROS] | 11.1 ± 0.628
56 | SAGGSAGGSAWRLYIGGQKIEIPPGGPVKLERHKNGWVKIEIKMPGGRKKEFTIPIPPGATSAGGSAGGSAG [r3_207_TrROS] | 6.94 ± 0.753
57 | SMFRPFPLPDGRPAYDFIIPGLELASSFFPETGRPVLVLRPGGRLGAAPLFAADLDVLFSRPPLVAVEPDSA [r9_205_TrMRF] | 4.18 ± 0.586
58 | SAGGSAGGSAGGSPDGWKFKMEMFTVKVPGAKITIPDGKSITLPPGKEVTIMIMTYVPPSAGGSAGGSAGGS [r4_26_TrROS] | 14.5 ± 0.385
59 | SAGGMLVEARPVLRLTLVSPDGTPREFELPFTVPFSPENPEALLEEAEAIARAIAEATGAEAEIEIEPSAGG [r13_853_TrMRF] | 1.33 ± 0.628
60 | SAGGSAMSITISDISSVKNLTITETTPDGTPVTVTVNATTGSGPPTLTFTATTPGTGATTTTTTAFSAGGSA [r15_1006_JUSTAS] | 1.59 ± 0.213
61 | SAGGMTVSVTADGSSYTATVKLPDGTTLTVPFTSLEELATQVREEYEKAFPDVPLERLVLEDISPTAPSAGG [r13_887_JUSTAS] | 12.3 ± 0.151
62 | SAGGSAGGSKPEPVKPVKLKVKLPGGEYEVEAVELPKGVVLVRNPADNSLAVITPDRLVVLPLSAGGSAGGS [r12_737_TrMRF] | 1.96 ± 0.318
63 | SAGGSAMLVFKITIKNPETNETIELEIEAETLEEAKEAIEKLIAELTGKEPTEIKIEVVEIKEEDLSAGGSA [r15_670_TrROS_Hall] | 18.5 ± 1.13
